Values of other authors, collected in paper PMC4303274.
Read-outs that look alike come from different tables or passages of the source.

How the values were obtained:
[1] = biological target: neurogranin (Homo sapiens) (UniProt Q92686)
CaMKII (Homo sapiens) [2] = biological target: CaMKII (Homo sapiens) (UniProt Q9UQM7)
CaMKII (Homo sapiens) [3] = biological target: CaMKII (Homo sapiens) (UniProt Q9UQM7); remark: listed apart in the source

Chain of CaMKII (Homo sapiens) (Q9UQM7 whole entry): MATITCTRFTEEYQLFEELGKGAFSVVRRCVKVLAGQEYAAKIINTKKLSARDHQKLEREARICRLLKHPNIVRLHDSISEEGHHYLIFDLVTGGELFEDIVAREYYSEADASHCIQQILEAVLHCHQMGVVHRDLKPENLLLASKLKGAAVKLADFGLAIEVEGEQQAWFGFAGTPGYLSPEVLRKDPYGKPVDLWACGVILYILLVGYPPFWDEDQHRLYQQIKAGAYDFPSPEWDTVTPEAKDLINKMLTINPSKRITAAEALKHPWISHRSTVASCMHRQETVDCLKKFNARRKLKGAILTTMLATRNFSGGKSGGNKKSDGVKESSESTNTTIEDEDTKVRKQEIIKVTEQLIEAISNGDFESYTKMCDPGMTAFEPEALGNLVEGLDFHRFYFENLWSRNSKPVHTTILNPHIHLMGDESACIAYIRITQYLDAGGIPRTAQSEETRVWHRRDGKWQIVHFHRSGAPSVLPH
Chain of neurogranin (Homo sapiens) (Q92686 whole entry): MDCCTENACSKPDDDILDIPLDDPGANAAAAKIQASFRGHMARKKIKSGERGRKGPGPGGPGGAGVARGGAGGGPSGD

Row | Kd [1] | Kd (CaMKII (Homo sapiens) [2]) | Kd (CaMKII (Homo sapiens) [3]) | Substance
1 | 1050 nM | 950 nM | – | calmodulin C-lobe fragment TR2C (R state) TR2C (from UniProt P0DP23)
2 | – | – | 88000 nM | calmodulin C-lobe fragment TR2C (T state) TR2C (from UniProt P0DP23)
